Where a chain is given by its changes, count along the chain named.
B1: H4sH17675P (antibody, V domains shown)
VH: EVQLVESGGGLVQPGASLRLSCEASGFTLSFYAMHWVRQAPGKELEYVSGISGNGNSIYYRDSVKGRFTISRDNSKNTLYLQMGSVGAEDMAVYYCARSYSSGNSYYYYYGMDVWGQGTTVTVSS
VL: DIQMTQSPSSLSASVGDRITITCRASQSISSYLNWYQQKPGKAPNLLIYAASNLQSGVPSRFSGSGSGTDFTLTISSLQPEDFATYYCQQSYSTPPITFGQGTRLEIKR
B2: H4sH17363N (antibody, V domains shown)
VH: EVQLLESGGGLVQPGGSLRLSCAASGFTFSSYAMTWVRQAPGMGLEWVSVISGSGSETYYADSVKGRFTISRDNSKNTLYLQMNSLRAEDTAVYYCVKDSSYRSSSRAYYYYGMDVWGLGTTVTVSS
VL: B1 VL with I19V, N45K, A51V, N53I, S76N, Y87S, S91T
B3: H4sH17364N (antibody, V domains shown)
VH: B2 VH with M43K
VL: B1 VL with I19V, N45K, A51V, N53I, Y87S, S91T
B4: H4sH17930N (antibody, V domains shown)
VH: EVQLVESGGGLVQPGGSLRLSCAASGFTFSYYALHWVRQAPGKGLEYVSAISGNGGSTYYADSVKGRFTISRDKSMSTVYLQVGSLRAEDMAVYYCARSYASSSDYHYYYGMDVWGQGTTVTVSS
VL: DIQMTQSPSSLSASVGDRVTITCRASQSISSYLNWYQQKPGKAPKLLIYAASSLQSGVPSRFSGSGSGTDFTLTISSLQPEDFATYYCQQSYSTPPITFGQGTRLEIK
B5: H4sH21079P (antibody, V domains shown)
VH: EVQLVESGGGLVKPGGSLRLSCAASGFTFSNAWMSWVRQAPGKGLEWVGRIKTRADGGTTDYAAPVKGRFTISRDDSKNTLYLQLNSLKTEDTAVYYCTSHNWNYEDFDYWGQGTLVTVSS
VL: DIQMTQSPSSLSASVGDRVTITCRASQSISNYLNWYQQKPGKAPKLLIYAASSLQSGVPSRFSGSGSGTDFTLTISSLQPEEFATYYCQQSYSIPYTFGQGTKLEIK
B6: H4sH17672P (antibody, V domains shown)
VH: B1 VH with A33S, K43R, S57N, Y80N, G87R, A92G, Y107N
VL: DIQMTQSPSSLSASVGDRVTITCRASQTISSYLNWYQQKPGKAPKLLIYAVSNLQSGVPSRFSGSGSGTDFTLTISSLQPEDFATYYCQQSYSTPPITFGQGTRLEIK
B7: H4sH21080P (antibody, V domains shown)
VH: EVQLVESGGGLVQPGGSLRLSCAASGFTFSSYAMSWVRQAPGKGLEWVSGISGSGGTTYDADSVKGRFTISRDNSKNTLYLQMHSLRAEDTAAYYCAKDWNYGPYYYFGMDVWGQGTTVTVSS
VL: not shown
B8: H4sH17670P (antibody, V domains shown)
VH: EVQLVESGGDLVQPGTSLRLSCEASGFTLSFYAMYWVRQAPGKELELVSGISGNGESMFYGNSVKGRFSISRDNSKNTLYLQMGSVRAEDMAVYYCARAYASGNSYFFYYGMDVWGQGTTVTVSS
VL: not shown
B9: H4sH17930N2 (antibody, V domains shown)
VH: B4 VH
VL: not shown
B10: H4sH21064P (antibody, V domains shown)
VH: EVQLVESGGGLVQPGGSLRLSCAASGFTFTFYAMHWVRQAPGKGLEYVSGISSNGGSTKYADSVKGRFTISRDNSKNTLYLQMGSLRAEDLAVYYCARSYASSSDYHYYYGMDVWGQGTTVTVSS
VL: not shown

target: T1, HLA-A2/HPV16E7:11-19 on peptide-pulsed T2 cells (human; human papillomavirus type 16); assay: FACS, T2, 10 ug/ml;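 note: Peptide-pulsed T2 cells held overnight at 26 °C, then stained with antibodies at 10 µg/ml, WI values reported as fold change versus unstained cells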
Procedure: (§1) T2 cells were then incubated overnight at 26° C., washed in staining buffer and stained with the indicated antibodies at a concentration of 10 μg/ml following the protocol described above. WI values were calculated and presented as fold change over unstained cells.

Row | Binder | Fold change over unstained [fold]
1 | B1 | 1200
2 | B2 | 1000
3 | B3 | 986

target: T2, HLA-A2 with off-target peptide SH3GLB1:244-252 on pulsed T2 cells (human); assay: FACS, T2, 10 ug/ml;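 note: Peptide-pulsed T2 cells held overnight at 26 °C, then stained with antibodies at 10 µg/ml, WI values reported as fold change versus unstained cells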
T2 construct: also called Endophilin-B1
Procedure: as §1

Row | Binder | Fold change over unstained [fold]
4 | B1 | 10.5
5 | B2 | 13.6
6 | B3 | 15.2

target: HLA-A2 with off-target peptide CAMKK1:388-396 on pulsed T2 cells (human); assay: FACS, T2, 10 ug/ml;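 note: Peptide-pulsed T2 cells held overnight at 26 °C, then stained with antibodies at 10 µg/ml, WI values reported as fold change versus unstained cells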
Procedure: as §1

Row | Binder | Fold change over unstained [fold]
7 | B1 | 2.4
8 | B2 | 2
9 | B3 | 1

target: HLA-A2 with off-target peptide USP47:691-699 on pulsed T2 cells (human); assay: FACS, T2, 10 ug/ml;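 note: Peptide-pulsed T2 cells held overnight at 26 °C, then stained with antibodies at 10 µg/ml, WI values reported as fold change versus unstained cells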
Procedure: as §1

Row | Binder | Fold change over unstained [fold]
10 | B1 | 13.3
11 | B2 | 0.6
12 | B3 | 1.3

target: T3, HLA-A2 with off-target peptide CHPF:463:471 on pulsed T2 cells (human); assay: FACS, T2, 10 ug/ml
T3 construct: also called Chondroitin sulfate synthase 2
Procedure: as §1

Row | Binder | Fold change over unstained [fold]
13 | B1 | 5
14 | B2 | 7.4
15 | B3 | 10.9

target: HLA-A2 with off-target peptide PKD1:2694-2702 on pulsed T2 cells (human); assay: FACS, T2, 10 ug/ml
Procedure: as §1

Row | Binder | Fold change over unstained [fold]
16 | B1 | 2.9
17 | B2 | 1.2
18 | B3 | 1

target: HLA-A2 with off-target peptide NBR1:357-365 on pulsed T2 cells (human); assay: FACS, T2, 10 ug/ml
Procedure: as §1

Row | Binder | Fold change over unstained [fold]
19 | B1 | 2.2
20 | B2 | 3.6
21 | B3 | 3

target: T4, HLA-A2 with off-target peptide CBL:83-91 on pulsed T2 cells (human); assay: FACS, T2, 10 ug/ml
T4 construct: also called E3 ubiquitin-protein ligase CBL
Procedure: as §1

Row | Binder | Fold change over unstained [fold]
22 | B1 | 4.9
23 | B2 | 19.5
24 | B3 | 23.9

target: HLA-A2 with off-target peptide PPP4R4:20-28 on pulsed T2 cells (human); assay: FACS, T2, 10 ug/ml
Procedure: as §1

Row | Binder | Fold change over unstained [fold]
25 | B1 | 5.5
26 | B2 | 6.1
27 | B3 | 9

target: HLA-A2 with off-target peptide SBK3:285-293 on pulsed T2 cells (human); assay: FACS, T2, 10 ug/ml
Procedure: as §1

Row | Binder | Fold change over unstained [fold]
28 | B1 | 2.9
29 | B2 | 0.4
30 | B3 | 0.8

target: HLA-A2 with HPV16E7:11-19 alanine scanning peptide […] (L13A) on pulsed T2 cells (human; human papillomavirus type 16); assay: FACS, T2, Ala scan
Procedure: (§2) Alanine scanning was performed to determine which residues in the HPV16E7:11-19 peptide were critical for antibody binding. T2 cells were pulsed with alanine scanning peptides and stained with HPV16E7:11-19 antibodies as described above.

Row | Binder | FACS binding (fold over unstained) [fold]
31 | B1 | 527
32 | B2 | 530
33 | B3 | 490

target: HLA-A2 with HPV16E7:11-19 alanine scanning peptide […] (L15A) on pulsed T2 cells (human; human papillomavirus type 16); assay: FACS, T2, Ala scan
Procedure: as §2

Row | Binder | FACS binding (fold over unstained) [fold]
34 | B1 | 1150
35 | B2 | 1020
36 | B3 | 1010

target: T1, HLA-A2/HPV16E7:11-19 on peptide-pulsed …; assay: MSD cell binding, T2
Procedure: To determine anti-HLA-A2/HPV16E7 monoclonal antibody specificity, peptide-pulsed T2 cells loaded with target or off-target peptides (identified in the previous Example) were used. […] Approximately 6 million T2 cells per T-75 flask were cultured for 24 hours at 26° C. in 9 mL of AIM V® Medium containing 10 μg of human b2m and 100 μg of HPV16E7 peptide or off-target peptide (Tables 6 and 7). Peptide-loaded T2 cells were washed once with PBS without Ca2+/Mg2+ and counted. Approximately 10,000 cells per well of the peptide-loaded T2 or untreated T2 in cell washing buffer were seeded into the 96-well carbon electrode plates (MULTI-ARRAY high bind plate, MSD) and incubated for 1 hour at 37° C. to allow cells to adhere to the plate. Nonspecific binding sites were blocked using 2% BSA (w/v) in PBS for 1 hour at room temperature. […] Plates were incubated for 1 hour at room temperature, then washed to remove the unbound antibody using an AquaMax2000 plate washer (MDS Analytical Technologies). Plate-bound antibodies were detected with SULFO-TAG™-conjugated goat polyclonal anti-human IgG antibody specific for the Fc gamma fragment (Jackson Immunoresearch, Meso Scale Discovery) for 1 hour at room temperature. After washes, the plates were developed with the Read Buffer (MSD) according to manufacturer's recommended procedure, and the luminescent signals were recorded with a SECTOR Imager 600 (Meso Scale Discovery) instrument. The luminescence intensity, measured in relative light units (RLU), was recorded to indicate the binding intensity of each antibody at the range of concentrations.

Row | Binder | EC50 [nM]
37 | B4 | 3.1
38 | B5 | 1.1
39 | B1 | 1.1
40 | B2 | 2.1
41 | B3 | 2
42 | B6 | 0.45
43 | B7 | 0.22
44 | B8 | 1.3

target: monomeric HLA-A2:HPV16E7(11-19) peptide complex, soluble (human; human papillomavirus type 16); assay: SPR 25C, mAb captured

Row | Binder | Kd [nM] | t½ [min] | koff [s⁻¹] | kon [M⁻¹ s⁻¹]
45 | B4 | 10.2 | 14.5 | – | –
46 | B9 | 9.57 | 14.6 | – | –
47 | B5 | 290 | 1.1 | 0.0109 | 37400
48 | B1 | 23.1 | 8.4 | 0.00138 | 59900
49 | B2 | 17.6 | 7.5 | 0.00154 | 87200
50 | B3 | 18.3 | 7.4 | 0.00157 | 85600
51 | B6 | 6.37 | 14.1 | 0.000819 | 129000
52 | B7 | 218 | 0.3 | 0.039 | 179000
53 | B10 | 14.4 | 14.6 | – | –
54 | B8 | 17.5 | – | – | –

Reference: patent US20220001000A1 (Regeneron, published 2022)
